# Measured values as given in paper PMC3470943, “Identification of BACE2 as an avid ß-amyloid-degrading protease” (Molecular Neurodegeneration, 2012).
# Tests used:
# [1] = system: Aß40 levels produced by CHO cells co-transfected with human APP-AP; test: Functional cDNA screen for Aß-lowering proteases, co-transfection with APP-AP; format: cell-based, CHO cells (rodent cell line); conditions: protease cDNA 100 ng/well co-transfected with APP-AP 60 ng/well; 24 h conditioned medium; normalized to intra-plate controls; quadruplicate
# Protocol: A library of 352 full-length, sequence verified, human cDNAs encoding diverse members of all protease classes was purchase from a commercial source (OriGene Technologies, Inc.) in 96-well format (100 ng/well). For negative and positive controls, a subset of blank wells on each plate were supplemented with empty vector or a construct expressing a well-established AßDP, human ECE1b, respectively (100 ng/well). As a source of human Aß and also as a transfection control, each well was cotransfected with a hybrid construct, APP-AP (60 ng/well), comprised of a vector expressing wild-type human APP fused at its N-terminus with alkaline phosphatase (AP). Additional blank wells were left untreated for cell-free background controls. […]
# Following heat treatment to inactivate endogenous phosphatases (65°C for 15 min) present in the media, conditioned media (30 μL/well) was added to 96-well plates containing AP substrate, 4-nitrophenylphosphate (170 μL/well, 2 mg/mL), dissolved in AP buffer (1 M diethanolamine, 0.5 mM MgCl2, 10 mM L-homoarginine, pH 9.8). Plates were incubated for 30 min and AP activity was determined from absorbance (OD405) using a SpectraMax® M5^e multilabel plate reader (Molecular Devices).
# Aβ levels were quantified using a sandwich ELISA system based on antibody pairs 33.1.1/13.1.1 for Aβ40 and 2.1.3/4 G8 for Aβ42 as described previously. […]
# [2] = system: Aß (fluorescent substrate FAβB); test: Fluorescence polarization-based Aß degradation assay; format: biochemical; conditions: 37°C
# Protocol: The kinetics of Aβ40 and Aβ42 degradation by BACE2 were determined using freshly prepared, monomeric Aβ peptides separated from aggregated species by size-exclusion chromatography and characterized as described. Aβ peptides were diluted in neutral Dilution Buffer (20 mM Tris, pH 8.0 supplemented with 0.1% BSA) and reactions were initiated by transfer into 20 times more volume of Assay Buffer supplemented with purified recombinant BACE2 (R&D Systems, nominal concentration 1 or 5 nM) or, as a control for non-specific loss of Aβ, the latter buffer lacking BACE2. Where required, reactions were terminated by supplementation with protease inhibitor cocktail and adjustment to neutral pH. For ELISA-based experiments, Aβ42 and Aβ40 were quantified using the sandwich ELISAs described above. […] For determination of the pH dependence of Aβ degradation, experiments were carried same as described above, using Assay Buffer at different pH values (3.0, 3.5, 4.0, 4.5, 5.0, 5.5). The reactions were stopped at 10 min and the remaining 200nM of Aβ was determined using a well-characterized fluorescence polarization-based activity Aß degradation assay, as described. […] The degree of Aβ hydrolysis was immediately determined using a polarization-based Aß degradation assay. […]
# [3] = system: pre-formed fibrils of Aß42; test: Thioflavin T fluorescence of pre-formed Aß42 fibrils incubated with BACE2; format: biochemical; conditions: BACE2 10 nM, 37°C, up to 3 d / 5 d (legend Figure 2D), 3 replicates
# Protocol: Figure 2 BACE2 degrades Aß in vitro. A, Percent Aß remaining following incubation with different concentrations of recombinant BACE2 for various lengths of time. Data are mean ± SEM of 4 replicates, normalized to protease-free controls. B, Comparison the relative Aß-degrading ability of recombinant BACE2 vs. BACE1. Note that 24 h incubation with BACE1 was required to achieve approximately the same extent of degradation as effected by BACE2 in 10 min. Data are mean ± SEM of 3 replicates, normalized to protease-free controls. C, BACE2 activity is pH dependent. Percent Aß degradation catalyzed by equivalent amounts of BACE2 at different pH values. Data are mean ± SEM of 4 replicates. […] Data are mean ± SEM of 3 replicates.
# Individual AßDPs can be categorized in terms of their ability or inability to degrade fibrillar forms of Aß. Many well-established AßDPs, such as IDE and NEP, avidly degrade monomeric Aß but cannot degrade fibrillar forms and are therefore categorized as pure peptidases. Others, such as plasmin, degrade Aß fibrils and thus can also be categorized as fibrilases.
# [4] = system: net Aß40 and Aß42 levels of CHO cells expressing APP-AP; test: Confirmation: co-transfection of BACE2 or BACE1 cDNA with APP-AP, Aß40 and Aß42 ELISA; format: cell-based; conditions: CHO cells co-transfected with APP-AP, 4 replicates, normalized to vector-only controls
# Protocol: Figure 1 Overview and outcome of functional screening for novel Aß-lowering proteases. A, Cartoon illustrating the overall design of the screen. Briefly, an arrayed collection of 352 protease-encoding cDNAs was cotransfected into CHO cells together with an APP-AP fusion construct. Following a medium change and overnight incubation, Aß40 levels, AP activity, and cytotoxicity (via MTT assay) were analyized in the resulting conditioned media. B, Results of the screen, expressed as [Aß40]/AP ratios normalized to intraplate controls. Data are mean of 4 replicates. Note that the largest decrease in Aß levels by far was acheived by BACE2. C, Confirmation of the results of the screen. Following scale-up and sequence verification, cDNAs encoding BACE2 and its homolog, BACE1, were cotransfected together with APP-AP into CHO cells. […]
# Aβ levels were quantified using a sandwich ELISA system based on antibody pairs 33.1.1/13.1.1 for Aβ40 and 2.1.3/4 G8 for Aβ42 as described previously. Conditioned media were supplemented with Complete^TM Protease Inhibitor Cocktail (Roche) just after collection and analyzed immediately. For experiments quantifying intracellular Aß, cells were plated in 96-well plates (2 x 10^4 cells per well) and transfected with BACE2-encoding cDNA or empty vector, washed, then incubated with 400 nM synthetic Aß for 6 h. […]
Molecule,decrease in normalized Aß levels ([Aß40]/AP ratio) [1] [%],"pH of maximal Aß40 hydrolysis ([2]; Assay Buffer at pH 3.0, 3.5, 4.0, 4.5, 5.0, 5.5, 200 nM Aβ, stopped at 10 min, 4 replicates)",effect on aggregation of pre-formed Aß42 fibrils [3],effect of overexpression on net Aß40 and Aß42 levels [4],"efficiency of Aß degradation, fold lower than that of BACE2 ([2]; BACE1 24 h vs BACE2 10 min for a similar extent of degradation, Assay Buffer pH 4.0)"
"BACE2: ß-site APP-cleaving enzyme-2, aspartyl protease; recombinant enzyme (R&D Systems) or transfected human cDNA (protein, UniProt Q9Y5Z0 63-518, looked up) Beta-secretase 2: ALEPALASPAGAANFLAMVDNLQGDSGRGYYLEMLIGTPPQKLQILVDTGSSNFAVAGTPHSYIDTYFDTERSSTYRSKGFDVTVKYTQGSWTGFVGEDLVTIPKGFNTSFLVNIATIFESENFFLPGIKWNGILGLAYATLAKPSSSLETFFDSLVTQANIPNVFSMQMCGAGLPVAGSGTNGGSLVLGGIEPSLYKGDIWYTPIKEEWYYQIEILKLEIGGQSLNLDCREYNADKAIVDSGTTLLRLPQKVFDAVVEAVARASLIPEFSDGFWTGSQLACWTNSETPWSYFPKISIYLRDENSSRSFRITILPQLYIQPMMGAGLNYECYRFGISPSTNALVIGATVMEGFYVIFDRAQKRVGFAASPCAEIAGAAVSEISGPFSTEDVASNCVPAQSLSEPILWIVSYALMSVCGAILLVLIVLLLLPFRCQRRPRDPEVVNDESSLVRHRWK",97 ± 1.2,3.5,No significant reduction in aggregation,decreased the levels of both Aβ40 and Aβ42,–
"BACE1: ß-site APP-cleaving enzyme-1, homolog of BACE2; recombinant enzyme or transfected cDNA (protein, UniProt P56817 46-501, looked up) Beta-secretase 1: ETDEEPEEPGRRGSFVEMVDNLRGKSGQGYYVEMTVGSPPQTLNILVDTGSSNFAVGAAPHPFLHRYYQRQLSSTYRDLRKGVYVPYTQGKWEGELGTDLVSIPHGPNVTVRANIAAITESDKFFINGSNWEGILGLAYAEIARPDDSLEPFFDSLVKQTHVPNLFSLQLCGAGFPLNQSEVLASVGGSMIIGGIDHSLYTGSLWYTPIRREWYYEVIIVRVEINGQDLKMDCKEYNYDKSIVDSGTTNLRLPKKVFEAAVKSIKAASSTEKFPDGFWLGEQLVCWQAGTTPWNIFPVISLYLMGEVTNQSFRITILPQQYLRPVEDVATSQDDCYKFAISQSSTGTVMGAVIMEGFYVVFDRARKRIGFAVSACHVHDEFRTAAVEGPFVTLDMEDCGYNIPQTDESTLMTIAYVMAAICALFMLPLCLMVCQWRCLRCLRQQHDDFADDISLLK",–,–,–,no effect,~ 150 fold
